Legend:
[1] = target: Fyn (UniProt P06241); assay: phosphorylation enrichment, bacterial display (enrichment ratio); higher = better substrate or ligand; peptides without Tyr show the background
[2] = tested on: Fer (mouse); assay: as above
[3] = tested on: c-Src; assay: as above
[4] = target: Jak2 (UniProt O60674); assay: as above
[5] = tested on: AncSZ; assay: as above
[6] = target: EPHB1 (UniProt P54762); assay: as above
[7] = target: FGFR1 (UniProt P11362); assay: as above
[8] = target: EPHB2 (UniProt P29323); assay: as above
Chain of EPHB2 (P29323 whole entry, looked up): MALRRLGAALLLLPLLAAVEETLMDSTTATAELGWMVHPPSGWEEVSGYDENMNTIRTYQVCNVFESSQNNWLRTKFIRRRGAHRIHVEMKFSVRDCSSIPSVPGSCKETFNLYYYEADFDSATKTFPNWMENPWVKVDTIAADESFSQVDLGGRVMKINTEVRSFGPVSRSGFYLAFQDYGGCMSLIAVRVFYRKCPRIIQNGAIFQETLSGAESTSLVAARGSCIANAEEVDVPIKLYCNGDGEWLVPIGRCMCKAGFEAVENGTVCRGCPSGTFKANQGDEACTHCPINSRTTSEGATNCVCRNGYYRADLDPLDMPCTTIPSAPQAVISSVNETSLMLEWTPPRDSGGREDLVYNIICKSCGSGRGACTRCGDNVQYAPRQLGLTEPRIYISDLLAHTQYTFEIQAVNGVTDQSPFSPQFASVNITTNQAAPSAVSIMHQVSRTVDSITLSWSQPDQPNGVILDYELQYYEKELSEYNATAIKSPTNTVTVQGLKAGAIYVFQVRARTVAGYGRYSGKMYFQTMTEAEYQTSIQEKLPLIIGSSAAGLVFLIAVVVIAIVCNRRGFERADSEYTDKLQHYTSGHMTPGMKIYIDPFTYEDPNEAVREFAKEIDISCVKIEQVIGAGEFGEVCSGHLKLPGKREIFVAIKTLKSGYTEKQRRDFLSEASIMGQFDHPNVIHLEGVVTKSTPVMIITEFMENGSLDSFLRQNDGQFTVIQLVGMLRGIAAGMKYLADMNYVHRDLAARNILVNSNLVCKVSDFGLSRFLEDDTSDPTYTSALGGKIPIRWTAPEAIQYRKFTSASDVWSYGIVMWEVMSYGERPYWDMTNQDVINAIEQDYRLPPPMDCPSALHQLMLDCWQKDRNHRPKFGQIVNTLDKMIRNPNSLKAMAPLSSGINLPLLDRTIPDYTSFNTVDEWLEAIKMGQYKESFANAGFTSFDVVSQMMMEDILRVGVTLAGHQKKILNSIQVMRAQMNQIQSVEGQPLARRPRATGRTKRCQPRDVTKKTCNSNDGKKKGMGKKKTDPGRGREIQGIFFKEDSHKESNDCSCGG

[9] = target: Fes (UniProt P07332); assay: as above
[10] = target: FGFR3 (UniProt P22607); assay: as above
Chain of FGFR3 (P22607 whole entry, looked up): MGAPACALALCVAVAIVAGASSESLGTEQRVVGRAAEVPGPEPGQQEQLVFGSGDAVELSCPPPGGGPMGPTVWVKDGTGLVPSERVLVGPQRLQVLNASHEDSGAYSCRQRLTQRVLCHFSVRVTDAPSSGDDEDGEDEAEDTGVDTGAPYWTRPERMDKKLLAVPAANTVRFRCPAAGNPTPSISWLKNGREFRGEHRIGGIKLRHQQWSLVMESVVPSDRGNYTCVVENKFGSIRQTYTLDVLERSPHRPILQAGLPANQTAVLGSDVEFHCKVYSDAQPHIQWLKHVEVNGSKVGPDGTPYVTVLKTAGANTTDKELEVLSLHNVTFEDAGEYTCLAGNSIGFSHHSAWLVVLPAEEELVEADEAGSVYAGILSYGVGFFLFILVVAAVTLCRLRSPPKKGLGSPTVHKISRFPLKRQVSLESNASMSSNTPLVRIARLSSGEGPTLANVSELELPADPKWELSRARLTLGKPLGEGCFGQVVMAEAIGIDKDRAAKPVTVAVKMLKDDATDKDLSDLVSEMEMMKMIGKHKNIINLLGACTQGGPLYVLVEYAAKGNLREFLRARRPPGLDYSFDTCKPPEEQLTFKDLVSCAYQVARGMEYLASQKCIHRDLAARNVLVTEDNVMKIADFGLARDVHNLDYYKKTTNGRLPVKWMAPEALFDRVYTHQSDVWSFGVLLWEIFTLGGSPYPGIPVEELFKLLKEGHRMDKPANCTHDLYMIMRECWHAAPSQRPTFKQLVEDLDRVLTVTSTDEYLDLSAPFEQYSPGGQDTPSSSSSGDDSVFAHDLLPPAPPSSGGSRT

[11] = target: Hck (UniProt P08631); assay: as above
Chain of Hck (P08631 whole entry, looked up): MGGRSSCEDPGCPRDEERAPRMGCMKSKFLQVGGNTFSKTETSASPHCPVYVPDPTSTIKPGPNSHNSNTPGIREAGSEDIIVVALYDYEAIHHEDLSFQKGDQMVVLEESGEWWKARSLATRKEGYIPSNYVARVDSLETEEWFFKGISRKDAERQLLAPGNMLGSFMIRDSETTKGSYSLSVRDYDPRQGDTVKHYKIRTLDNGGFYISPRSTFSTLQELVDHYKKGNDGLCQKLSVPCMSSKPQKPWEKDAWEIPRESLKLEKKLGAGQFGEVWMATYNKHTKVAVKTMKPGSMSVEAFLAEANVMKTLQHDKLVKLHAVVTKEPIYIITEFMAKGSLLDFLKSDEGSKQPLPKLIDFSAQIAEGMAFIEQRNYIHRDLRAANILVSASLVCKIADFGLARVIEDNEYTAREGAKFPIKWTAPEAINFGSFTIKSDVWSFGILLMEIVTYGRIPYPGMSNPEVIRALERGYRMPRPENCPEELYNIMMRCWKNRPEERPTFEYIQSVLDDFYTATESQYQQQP

[12] = target: MERTK (UniProt Q12866); assay: as above
[13] = tested on: c-Abl (mouse); assay: as above
[14] = target: SHP2-C SH2; assay: SH2 binding enrichment of the phosphorylated peptide, bacterial display (enrichment ratio); higher = better substrate or ligand; peptides without Tyr show the background
[15] = target: Grb2 SH2 (UniProt P62993); assay: as above
Chain of Grb2 SH2 (P62993 whole entry, looked up): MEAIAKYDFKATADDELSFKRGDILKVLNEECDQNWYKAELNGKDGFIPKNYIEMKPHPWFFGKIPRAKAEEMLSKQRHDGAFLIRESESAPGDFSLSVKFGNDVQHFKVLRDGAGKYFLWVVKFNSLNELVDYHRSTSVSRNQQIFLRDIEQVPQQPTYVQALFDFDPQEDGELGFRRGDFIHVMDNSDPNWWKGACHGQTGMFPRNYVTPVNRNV

[16] = target: c-Src SH2; assay: as above
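For SH2 binding enrichment of the phosphorylated peptide, bacterial display in this document: peptide library displayed on the E. coli surface as eCPX fusions, selected cells deep-sequenced, score is each peptide's frequency after selection divided by its frequency in the input.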
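For phosphorylation enrichment, bacterial display in this document: 11-residue human phosphosite peptides and single-mutation variants displayed on the E. coli surface, counted by deep sequencing, each peptide's frequency after selection divided by its frequency in the unselected input library; frequency after pTyr selection over input frequency; kinase dosed for 20-30% of maximal phosphorylation in three min.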

Chain of EPHB1 (P54762 whole entry, looked up): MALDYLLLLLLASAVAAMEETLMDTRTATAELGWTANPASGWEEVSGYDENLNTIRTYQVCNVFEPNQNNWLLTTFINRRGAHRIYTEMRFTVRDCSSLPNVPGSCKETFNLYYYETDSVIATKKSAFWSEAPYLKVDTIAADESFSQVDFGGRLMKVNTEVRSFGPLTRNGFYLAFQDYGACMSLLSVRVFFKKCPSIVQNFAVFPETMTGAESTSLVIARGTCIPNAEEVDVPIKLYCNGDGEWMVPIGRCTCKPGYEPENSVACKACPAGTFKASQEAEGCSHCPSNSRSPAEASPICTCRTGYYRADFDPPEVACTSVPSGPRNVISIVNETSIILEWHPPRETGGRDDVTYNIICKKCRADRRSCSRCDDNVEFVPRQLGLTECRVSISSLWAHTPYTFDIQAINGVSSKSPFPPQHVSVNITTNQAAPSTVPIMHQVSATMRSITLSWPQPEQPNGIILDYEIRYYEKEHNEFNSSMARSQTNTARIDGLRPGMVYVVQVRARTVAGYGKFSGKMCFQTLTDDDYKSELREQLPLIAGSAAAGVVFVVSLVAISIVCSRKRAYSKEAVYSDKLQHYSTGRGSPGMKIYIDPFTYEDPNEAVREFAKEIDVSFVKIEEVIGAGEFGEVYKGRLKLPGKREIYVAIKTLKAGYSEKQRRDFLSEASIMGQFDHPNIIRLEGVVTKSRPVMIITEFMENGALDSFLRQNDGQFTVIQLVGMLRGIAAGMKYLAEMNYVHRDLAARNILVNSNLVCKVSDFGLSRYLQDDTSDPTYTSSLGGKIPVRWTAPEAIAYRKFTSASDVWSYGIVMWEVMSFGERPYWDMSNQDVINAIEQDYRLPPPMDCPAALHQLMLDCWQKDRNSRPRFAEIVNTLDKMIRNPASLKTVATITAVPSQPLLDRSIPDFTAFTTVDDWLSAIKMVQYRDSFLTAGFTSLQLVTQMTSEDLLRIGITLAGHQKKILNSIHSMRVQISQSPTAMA
Chain of Fyn (P06241 whole entry, looked up): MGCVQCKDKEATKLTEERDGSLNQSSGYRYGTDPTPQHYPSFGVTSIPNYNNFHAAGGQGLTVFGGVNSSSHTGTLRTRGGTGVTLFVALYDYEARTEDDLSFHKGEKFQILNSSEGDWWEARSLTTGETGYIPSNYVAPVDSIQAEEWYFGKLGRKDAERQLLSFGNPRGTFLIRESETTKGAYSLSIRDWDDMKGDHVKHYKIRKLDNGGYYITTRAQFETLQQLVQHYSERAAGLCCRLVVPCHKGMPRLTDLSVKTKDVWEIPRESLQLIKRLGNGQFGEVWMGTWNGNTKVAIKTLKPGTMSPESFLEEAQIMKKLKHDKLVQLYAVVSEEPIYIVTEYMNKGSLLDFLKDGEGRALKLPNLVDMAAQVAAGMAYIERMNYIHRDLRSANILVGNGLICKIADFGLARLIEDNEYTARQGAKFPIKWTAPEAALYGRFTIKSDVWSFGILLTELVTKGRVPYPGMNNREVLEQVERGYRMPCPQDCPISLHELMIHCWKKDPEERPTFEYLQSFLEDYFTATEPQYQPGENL
Chain of FGFR1 (P11362 whole entry, looked up): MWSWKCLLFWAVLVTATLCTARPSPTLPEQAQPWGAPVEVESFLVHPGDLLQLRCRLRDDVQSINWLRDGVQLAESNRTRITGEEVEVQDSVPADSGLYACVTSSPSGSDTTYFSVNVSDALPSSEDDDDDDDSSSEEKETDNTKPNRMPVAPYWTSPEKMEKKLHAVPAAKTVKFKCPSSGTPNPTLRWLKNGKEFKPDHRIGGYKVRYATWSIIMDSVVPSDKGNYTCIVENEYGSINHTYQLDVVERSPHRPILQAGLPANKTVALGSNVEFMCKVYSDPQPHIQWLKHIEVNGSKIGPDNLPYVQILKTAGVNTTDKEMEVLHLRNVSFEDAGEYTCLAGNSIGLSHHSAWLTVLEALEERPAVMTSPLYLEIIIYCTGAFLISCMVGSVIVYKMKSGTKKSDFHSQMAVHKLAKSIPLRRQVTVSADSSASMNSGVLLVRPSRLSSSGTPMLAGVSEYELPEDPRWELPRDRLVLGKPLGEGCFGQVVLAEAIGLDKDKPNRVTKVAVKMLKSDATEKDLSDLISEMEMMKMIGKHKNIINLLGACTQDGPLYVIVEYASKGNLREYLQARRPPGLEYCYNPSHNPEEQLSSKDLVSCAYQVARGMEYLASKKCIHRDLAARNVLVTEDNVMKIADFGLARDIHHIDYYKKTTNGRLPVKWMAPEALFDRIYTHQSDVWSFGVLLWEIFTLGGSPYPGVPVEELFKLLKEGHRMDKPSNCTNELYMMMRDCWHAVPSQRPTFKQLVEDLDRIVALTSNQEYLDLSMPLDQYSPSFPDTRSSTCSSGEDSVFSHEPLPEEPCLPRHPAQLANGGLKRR

| Sequence | phosphorylation enrichment [1] | phosphorylation enrichment [2] | phosphorylation enrichment [3] | phosphorylation enrichment [4] | phosphorylation enrichment [5] | phosphorylation enrichment [6] | phosphorylation enrichment [7] | phosphorylation enrichment [8] | phosphorylation enrichment [9] | phosphorylation enrichment [10] | phosphorylation enrichment [11] | phosphorylation enrichment [12] | phosphorylation enrichment [13] | SH2 binding enrichment [14] | SH2 binding enrichment [15] | SH2 binding enrichment [16] |
| --- | --- | --- | --- | --- | --- | --- | --- | --- | --- | --- | --- | --- | --- | --- | --- | --- |
| RPQDGYRIVQH [PTPRT_Y1329] | 0.554 | 0.591 | 0.649 | 0.534 | 0.797 | 0.406 | 0.557 | 0.565 | 0.708 | 0.625 | 0.586 | 0.493 | 0.74 | 0.476 | 0.915 | 0.508 |
| RPSRQYATLDV [SCAMP3_Y35] | 0.315 | 0.313 | 0.319 | 0.42 | 0.373 | 0.331 | 0.37 | 0.33 | 0.461 | 0.336 | 0.376 | 0.379 | 0.381 | 6.79 | 0.899 | 9.6 |
| RRAKGYPIDLF [ITGB2_Y125_YF] | 0.563 | 1.08 | 1.25 | 1.64 | 4.21 | 0.566 | 1.06 | 0.605 | 0.993 | 0.677 | 0.57 | 0.878 | 0.771 | 0.687 | 0.573 | 0.427 |
| RRFLFYFSFLL [PTEN_Y177_V175L_YF] | 0.567 | 0.398 | 0.683 | 0.727 | 0.691 | 0.493 | 0.472 | 0.608 | 0.794 | 0.508 | 0.541 | 0.53 | 0.613 | 0.478 | 0.821 | 0.519 |
| RRNEIYEIKVD [LGR5_Y387_H383R] | 5.59 | 0.757 | 4.83 | 0.669 | 1.09 | 0.751 | 0.923 | 1.4 | 1.36 | 0.771 | 5.36 | 0.468 | 0.574 | 0.692 | 0.986 | 0.426 |
| RRVLVYVGRGA [QDPR_Y16_G17V] | 0.716 | 0.85 | 0.788 | 1.03 | 1.1 | 0.63 | 0.797 | 0.858 | 0.799 | 0.648 | 0.506 | 0.762 | 0.798 | 0.818 | 0.657 | 0.414 |
| RSAGKDDVFLI [MECP2_Y120_Y120D_YF] | 0.557 | 0.511 | 0.601 | 0.706 | 0.842 | 0.646 | 0.629 | 0.75 | 1.16 | 0.894 | 0.683 | 0.494 | 0.872 | 0.861 | 1.01 | 0.481 |
| RSFLSYYTSHV [NEFL_Y442_P440L] | 0.692 | 0.491 | 0.561 | 1.71 | 0.996 | 0.998 | 0.575 | 0.761 | 0.876 | 0.834 | 0.421 | 1.44 | 0.606 | 1.63 | 1.12 | 1.66 |
| RTESQYQENRG [LRCH3_Y354_R350T] | 0.578 | 0.539 | 0.557 | 1.26 | 0.792 | 0.675 | 0.499 | 0.414 | 1 | 0.591 | 0.653 | 0.688 | 0.799 | 0.862 | 1.19 | 0.554 |
| RTLSEYARPHV [RERE_Y1259] | 0.668 | 0.468 | 0.454 | 0.871 | 1.14 | 0.832 | 0.606 | 0.852 | 1.11 | 0.51 | 0.683 | 0.443 | 31.7 | 0.532 | 0.755 | 0.553 |
| RVGNMYVRGLS [ABCG8_Y209] | 0.574 | 0.468 | 0.331 | 0.709 | 0.672 | 0.457 | 0.58 | 0.471 | 0.839 | 0.682 | 0.675 | 0.395 | 0.494 | 0.732 | 0.994 | 0.564 |
| RVLQLYGCSPS [ASTL_Y279_K277Q] | 1.54 | 1.15 | 1.38 | 1.48 | 1.69 | 1.3 | 1.06 | 1.71 | 1.72 | 1.26 | 2.33 | 0.576 | 1.38 | 0.727 | 0.853 | 0.493 |
| SAVVPYEPPEV [TP53_Y220_V216A] | 0.556 | 0.479 | 0.484 | 0.998 | 1.23 | 0.643 | 0.586 | 0.608 | 1.21 | 0.761 | 0.513 | 0.409 | 0.649 | 0.502 | 0.806 | 0.643 |
| SDFSSYARTSI [TERT_Y949_YF] | 0.488 | 0.56 | 0.506 | 0.798 | 0.877 | 0.546 | 0.514 | 0.625 | 0.834 | 0.613 | 0.453 | 0.477 | 0.55 | 0.805 | 0.7 | 0.586 |
| SDVWSYGVTMW [ZAP70_Y525] | 0.477 | 0.63 | 0.54 | 1.26 | 1.15 | 0.688 | 0.557 | 0.695 | 1.39 | 0.847 | 0.695 | 0.502 | 0.979 | 0.576 | 0.84 | 0.614 |
| SEDANYKRVSC [TTC3_Y1288] | 0.612 | 0.491 | 0.442 | 1.06 | 0.886 | 0.558 | 0.418 | 0.55 | 1.02 | 0.696 | 0.532 | 0.449 | 0.82 | 0.646 | 1.15 | 0.594 |
